This note sets out measurements from the nanobody polyreactivity screen of Harvey et al. (2022).

This data set is described as follows: yeast display, Sf9 membrane polyspecificity reagent, FACS + sequencing; frameworks hold sequencing errors. The method in brief:
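Synthetic nanobody libraries on Saccharomyces cerevisiae BJ5465 were galactose-induced for 36–48 hours, stained 1 hour at 4 °C with 10% biotinylated, detergent-solubilized Sf9 membrane reagent and enriched on streptavidin microbeads. FACS then separated cells into low and high (top ~1%) gates by anti-HA (expression) and streptavidin (reagent binding) fluorescence. Genes were colony-PCR amplified, MiSeq 2 × 250 sequenced and CDR-length filtered. A clone's polyreactivity label is that of its gate of origin.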
For the sequence “QVQLVESGGGLVQAGGSLRLSCAASGRIFGWYAMGWYRQAPGKERELVAAISSSGVSTNYADSVKGRFTISRDNAKNTVYLQMNSLKPEDTAVYYCIARGFYWYRPYVNSNGGYWGQGTQVTVSS”, the “polyreactivity (PSR sort gate)” value is “high polyreactivity”.

As for “QVQLVESGGGLVQAGGSLRLSCAASGRIFGYNAMGWYRQAPGKERELVAAIDYTGGSTYYADSVKGRFTISRDNAKNTVYLQMNSLKPEDTAVYYCAKDRTTPWEEDDYWGQGTQVTVSS”, the “polyreactivity (PSR sort gate)” value is “low polyreactivity”.

On to “QVQLVESGGGLVQAGGSLRLSCAASGRIFGYNAMGWYRQAPGKERELVAAITNGGSTNYADSVKGRFTISRDNAKNTVYLQMNSLKPEDTAVYYCAVKWYPPGHDYWGQGTQVTVSS”, for which the “polyreactivity (PSR sort gate)” value is “low polyreactivity”.

Turning to “QVQLVESGGGLVQAGGSLRLSCAASGRIFGYNVMGWYIQAPGKERELVAAISWGTGSTYADSMKGRFTISRDNAKKTVYLQMNSLIPVDTAVYYCAADSFIPPYDHWGQGTQVTVSS”, the “polyreactivity (PSR sort gate)” value is reported as “low polyreactivity”.

For “QVQLVESGGGLVQAGGSLRLSCAASGRIFGYYAMGWSRQAPGKERELVATITFGGGSTYYADSVKGRFTISRDNAKNTVYFQMNSLKPEDTAVYYCAADSGYLGIYGDEYSWGQGTQVTVSS”, the “polyreactivity (PSR sort gate)” value is on record as “low polyreactivity”.

For the sequence “QVQLVESGGGLVQAGGSLRLSCAASGRIFGYYAMGWYIQAPGKERELVAAINWRGGNTNYADSVKGRFTISRDNAKNTVYLQMNSLKPEDTAVYYCNAQVLVRPIQGEYGYWGQGTQVTVSS”, the “polyreactivity (PSR sort gate)” value is “low polyreactivity”.

Take “QVQLVESGGGLVQAGGSLRLSCAASGRIFGYYAMGWYRQAPGKERELVAAISSRGSRTYYADSVKGRFTISRDNAKNTVYLQMNSLKPVDTAVYYCATYDYWGQGTQVTVSS”: the “polyreactivity (PSR sort gate)” value was “high polyreactivity”.

As to “QVQLVESGGGLVQAGGSLRLSCAASGRIFGYYAMGWYRQAPGKERELVAAISSSGGSTYYADSVKGRFTISRDNAKNTVYLQMNSLKPEDTAVYYCAREFSDGLSGKFDYWGQGTQVTVSS”, the “polyreactivity (PSR sort gate)” value was “low polyreactivity”.

Take “QVQLVESGGGLVQAGGSLRLSCAASGRIFGYYAMGWYRQAPGKERELVAAISTRGTSTYYADSVKGRFTISRDNAKNTVYLQMNSLKPEDTAVYYCARGFPPYRGTHMNYWGQGTQVTVSS”: the “polyreactivity (PSR sort gate)” value was “high polyreactivity”.

For the sequence “QVQLVESGGGLVQAGGSLRLSCAASGRIFGYYAMGWYRQAPGKERELVAAISYSTGGTSTYADSVKGRFTISRDNAKNTVYLQMNSLKPDDTAVYYCAKRIFTSARLNYWGQGTQVTVSS”, the “polyreactivity (PSR sort gate)” value was “high polyreactivity”.

Turning to “QVQLVESGGGLVQAGGSLRLSCAASGRIFGYYAMGWYRQAPGKERELVAPITKTVGGTYYADSVKGRFTISRDNAKNTVYLQMNSLKPEDTAVYYCAARVWTGNGRSKGAYDYWGQGTQVTVSS”, the “polyreactivity (PSR sort gate)” value is “high polyreactivity”.

Take “QVQLVESGGGLVQAGGSLRLSCAASGRIFGYYAMGWYRQAPGKESELVARISSSGGSTYYADSVKGRFTISRDNAKNTVYLQMNSLKPEDTAVYYCNTASNRSPGWRAEFDYWGQGTQVTVSS”: the “polyreactivity (PSR sort gate)” value was “low polyreactivity”.

“QVQLVESGGGLVQAGGSLRLSCAASGRIFGYYARGWYRQAPGKEREFVAGITQRTDSTYYADSVKGRFTISRDNAKNTVYLQMNSLKPEDTAVYYCAARGYGGYHWGYYWGQGTQVTVSS”: the “polyreactivity (PSR sort gate)” value is “high polyreactivity”.

As for “QVQLVESGGGLVQAGGSLRLSCAASGRIFGYYTMGWYRQAPGKERELVAAISSGGTTYYADSVKGRFTISRDNAKNTVYLQMNSLKPEDTAVYYCAADYYNTYGYDYWGQGTQVTVSS”, the “polyreactivity (PSR sort gate)” value is “low polyreactivity”.

With “QVQLVESGGGLVQAGGSLRLSCAASGRIFGYYTMGWYRQAPGKERELVADSSGGNTSYADSVKGRFTISRDNAKNTVYLQMNSLKPEDTAVYYCAKDLPGAWRGDDYWGQGTQVTVSS”, the “polyreactivity (PSR sort gate)” value was “low polyreactivity”.

Consider “QVQLVESGGGLVQAGGSLRLSCAASGRIFHANAMGWSRQAPGKERELVAGISRNGGRTYYADSVKGRFTISRDNAKNTVYLQMNSLKPEDTAVYYCNALHWQSKELDYFWGQGTQVTVSS”, for which the “polyreactivity (PSR sort gate)” value is recorded as “high polyreactivity”.

Turning to “QVQLVESGGGLVQAGGSLRLSCAASGRIFHGYAMGWYRQAPGKERELVAAISATGGSTYYADSVKGRFTISRDNAKNTVYLQMNSLKPEDTAVYYCARTNFYRSYDPGGRFYNYDYWGQGTQVTVSS”, the “polyreactivity (PSR sort gate)” value is on record as “low polyreactivity”.

“QVQLVESGGGLVQAGGSLRLSCAASGRIFHGYAMGWYRQAPGKERELVAAISSGGRTNYADSVKGRFTISRDNAKNTVYLQMNSLKPEDTAVYYCAAETQWYVRSRTLFYRYDYWGQGTQVTVSS”: the “polyreactivity (PSR sort gate)” value is listed as “high polyreactivity”.

With “QVQLVESGGGLVQAGGSLRLSCAASGRIFHPYAMGWYRPAPGKERELVAAITNSGGITYADSVKGRFTISRDNAKNTVYLQMNSLKPEDTSVYYCNTATNRFHYKYRKPYDYWGQGTQVTVSS”, the “polyreactivity (PSR sort gate)” value is given as “low polyreactivity”.

“QVQLVESGGGLVQAGGSLRLSCAASGRIFHRNAMGWYRPAPGKERELVATIRGNGGSTYYADSVKGRFTISRDNAKNTVYLQMNSLKPEDTAVYYCARDAQGYGGWWTYSRFYSWGQGTQVTVSS”: the “polyreactivity (PSR sort gate)” value is listed as “high polyreactivity”.

For the sequence “QVQLVESGGGLVQAGGSLRLSCAASGRIFHRYAMGWYRQAPGKERELVASISRGDSTNYADSVKGRFTISRDNAKNTVYLQMNSLKPEDTAVYYCAARSFTRYRYYYWGQGTQVTVSS”, the “polyreactivity (PSR sort gate)” value is reported as “high polyreactivity”.

Turning to “QVQLVESGGGLVQAGGSLRLSCAASGRIFHRYAMGWYRQAPGKERELVASISRGDSTNYADSVKGRFTISRDNAKNTVYLQMNSLKPEDTAVYYCAAVPRRSGHQRWGATYYYWGQGTQVTVSS”, the “polyreactivity (PSR sort gate)” value is listed as “high polyreactivity”.

Turning to “QVQLVESGGGLVQAGGSLRLSCAASGRIFHSYTMGWYRQAPGKERELVAAINWSGTRTYYADSVKGRFTISRDNAKNTVYLQMNSLKPEDTAVYYCNRVGVTRSYRYDYWGQGTQVTVSS”, the “polyreactivity (PSR sort gate)” value is “high polyreactivity”.

On to “QVQLVESGGGLVQAGGSLRLSCAASGRIFHSYVMGWYRQAPGKERELVARISSGGRTNYADSVKGRFTISRDNAKNSVYLQMNSLKPEDTAVYYCAATRLYPRSRYDYWGQGTQVTVSS”, for which the “polyreactivity (PSR sort gate)” value is recorded as “high polyreactivity”.

Consider “QVQLVESGGGLVQAGGSLRLSCAASGRIFHTYGRRWSRQAPGKEREFVAAITWTGGSTYYADSVKGRFTISRDNAKNTFYLQMNSLKPEDTAVYYCAADYPRDIIGSMDYWGQGTQVTVSW”, for which the “polyreactivity (PSR sort gate)” value is given as “low polyreactivity”.

As for “QVQLVESGGGLVQAGGSLRLSCAASGRIFHVNAMGWYRQAPGKERELVATITTSGGTTYYADSVKGRFTISRDKAKNTVYLQMNSLKPEDTAVYYCAAKFPRQYSSRYNYWGQGTQVTVSS”, the “polyreactivity (PSR sort gate)” value was “low polyreactivity”.

Consider “QVQLVESGGGLVQAGGSLRLSCAASGRIFHWYAMGWYRQAPGKERELVATANTSYADSVKGRFTISRDNAKNTVYLQMNSLKPEDTALYYCATVGPRGRSLGDYWGQGTQVTVSS”, for which the “polyreactivity (PSR sort gate)” value is recorded as “low polyreactivity”.

Regarding “QVQLVESGGGLVQAGGSLRLSCAASGRIFHYNAMGWYRQAPGKERELVAAISTGGSTNYADSVKGRFTISRDNAKNTVYLQMNSLKPEDTAVYYCNADLYVDPWTYFGYDYWGQGTQVTVSS”, the “polyreactivity (PSR sort gate)” value is listed as “low polyreactivity”.

For “QVQLVESGGGLVQAGGSLRLSCAASGRIFHYYAMGWYRQAPGKERELVAAINKSGGRTYYADSVKGRFTISRDNAKNTVYLQMNSLKPEDTAVYYCAAQDGYWGQGTQVTVSS”, the “polyreactivity (PSR sort gate)” value is given as “high polyreactivity”.

As for “QVQLVESGGGLVQAGGSLRLSCAASGRIFHYYAMGWYRQAPGKERELVAAINSAGSTKYADSVKGRFTISRDNAKNTVYLQMNSLKPEDTAVYYCAAERGSRDGGYDYWGQGTQVTVSS”, the “polyreactivity (PSR sort gate)” value is given as “low polyreactivity”.

As for “QVQLVESGGGLVQAGGSLRLSCAASGRIFHYYAMGWYRQAPGKERELVAAIRWSGGDTYYADSVKGRFTISRDNAKNTVYLQMNSLKPEDTAVYYCAAYEHVYEYDYWGQGTQVTVSS”, the “polyreactivity (PSR sort gate)” value is “low polyreactivity”.

“QVQLVESGGGLVQAGGSLRLSCAASGRIFHYYAMGWYRQAPGKERELVAAISWSGGSTYYADSVKGRFTISRDNAKNTVYLQMNSLKPEVTAVYYCNRQFGRRVYISHPGPGYWGQGTQVTVSS”: the “polyreactivity (PSR sort gate)” value is “high polyreactivity”.

As for “QVQLVESGGGLVQAGGSLRLSCAASGRIFHYYAMGWYRQAPGKERELVASISTGGNTYYADSVKGRFTISRDNAKNTVYLQMNSLKPEVTAVYYCAAVTVRKFYKGINYWYEYWGEGTQVTVSS”, the “polyreactivity (PSR sort gate)” value is “high polyreactivity”.

Take “QVQLVESGGGLVQAGGSLRLSCAASGRIFHYYMGWYRQAPGKERELVAVISSGDGTYYADSVKGRFTISRDNAKNTVYLQMNSLKPEDTAVYYCAADAPREYVDHYKYDDDYWGQGTQVNVSS”: the “polyreactivity (PSR sort gate)” value is “low polyreactivity”.

With “QVQLVESGGGLVQAGGSLRLSCAASGRIFIANTMGWYRQAPGKERELVAAITQRGDSTYYADSVKGRFTISRDNAKNTVYLQMNSLKPEDTAVYYCAARYYLSSYVRYNYWGQGTQVTVSS”, the “polyreactivity (PSR sort gate)” value is recorded as “high polyreactivity”.

In the case of “QVQLVESGGGLVQAGGSLRLSCAASGRIFIAYAMGWYRQAPGKERELVAAITDDGGTNYADSVKGRFTISRDNAKNTVYLQMNSLKPEDTAVYYCAATYLIGYYYVWEYDYWGQGTQVTVSS”, the “polyreactivity (PSR sort gate)” value is listed as “low polyreactivity”.

On to “QVQLVESGGGLVQAGGSLRLSCAASGRIFIGYAMGWYRQAPGKERELVAAISWGGGSTFYADSVKGRFTISRDNAKNTVYLQMNSLKPEDTAVYYCNKVYRQRVVKGGYWGQGTQVTVSS”, for which the “polyreactivity (PSR sort gate)” value is “high polyreactivity”.

As to “QVQLVESGGGLVQAGGSLRLSCAASGRIFIINAMGWYRQAPGKERELVAAITGTGSTYYADSVKGRFTISRDNAKNTVYLQMNSLKPEDTAVYYCAADVSYTYYGFWYDEYYWGQGTQVTVSS”, the “polyreactivity (PSR sort gate)” value is reported as “high polyreactivity”.

With “QVQLVESGGGLVQAGGSLRLSCAASGRIFILYGMGWYRQAPGKERELVAAIRWSGASTYYADSVKGRFTISRDNAKNTVYLQMNSLKPEDTAVYYCAATVGFTPSFWYSSKYDYWGQGTQVTVSS”, the “polyreactivity (PSR sort gate)” value was “low polyreactivity”.

In the case of “QVQLVESGGGLVQAGGSLRLSCAASGRIFINNAMGWYRQAPGKERELVAAISSRGGSTYYADSVKGRFTISRDNAKKTVYLQMNSLKPEDTAVYYCAVDVYEPRYRRPFHHDYWGQGTQVTVSS”, the “polyreactivity (PSR sort gate)” value was “low polyreactivity”.
